The target in assay [1] is eSALO-WT (SALO, salivary anticomplement from Lutzomyia longipalpis, expressed by HEK293(T) cells) (Lutzomyia longipalpis) (UniProt Q5WPZ4). Briefly: SPR; biotinylated eSALO-WT captured on streptavidin (97 RU); single-cycle kinetics, C1r proenzyme 25-400 nM, zC1r-12SP 6.25-100 nM; 25 °C, HBS-T; two-state kinetic model, apparent KD.
Assay [2] shares this target. Put plainly: SPR; biotinylated eSALO-WT or mutants captured on streptavidin (50-73 RU); single-cycle kinetics, C1r proenzyme 25-400 nM, zC1r-12SP 6.25-100 nM; 25 °C, HBS-T; two-state binding model, apparent KD; mean ± SD of three injections. (In SPR one partner is held on a chip, and binding of the other changes the refractive index at the surface.)
Assay [3] deals with eSALO-Y51F (Lutzomyia longipalpis). Described as above.
For assay [4], the target named is eSALO-E58A (Lutzomyia longipalpis). The description is as above.
Assay [5] addresses T1, C1r proenzyme (zymogen of complement protease C1r) (human).
T1 sequence (P00736 18-705, looked up): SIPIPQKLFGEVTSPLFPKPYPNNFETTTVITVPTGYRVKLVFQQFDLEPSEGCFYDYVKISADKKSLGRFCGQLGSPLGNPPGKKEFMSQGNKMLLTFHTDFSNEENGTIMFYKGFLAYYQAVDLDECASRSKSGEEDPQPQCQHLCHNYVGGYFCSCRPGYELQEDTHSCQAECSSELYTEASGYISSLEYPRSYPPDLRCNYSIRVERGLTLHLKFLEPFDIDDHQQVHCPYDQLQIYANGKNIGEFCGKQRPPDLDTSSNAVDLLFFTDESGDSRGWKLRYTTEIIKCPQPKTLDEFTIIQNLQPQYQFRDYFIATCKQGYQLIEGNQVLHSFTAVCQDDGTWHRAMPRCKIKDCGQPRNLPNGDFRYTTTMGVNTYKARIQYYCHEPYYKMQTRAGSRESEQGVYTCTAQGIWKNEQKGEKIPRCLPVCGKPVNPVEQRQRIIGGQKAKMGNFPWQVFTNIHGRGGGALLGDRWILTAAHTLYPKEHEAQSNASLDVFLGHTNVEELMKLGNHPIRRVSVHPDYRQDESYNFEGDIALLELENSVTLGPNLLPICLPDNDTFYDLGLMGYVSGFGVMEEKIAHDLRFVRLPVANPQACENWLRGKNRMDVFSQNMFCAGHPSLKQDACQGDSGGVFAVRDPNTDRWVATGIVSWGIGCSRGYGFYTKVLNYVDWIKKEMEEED

The target of assay [6] is eSALO-WT (SALO, salivary anticomplement from Lutzomyia longipalpis, expressed by HEK293(T) cells) (Lutzomyia longipalpis) (UniProt Q5WPZ4). Briefly: SPR; eSALO-WT amine-coupled to a CMD200M chip (720 RU); analytes injected as two-fold series (15.6-1000 nM; 1.56-100 nM for C1 and C1r proenzyme); 25 °C, HBS-T (20 mM Hepes pH 7.4, 140 mM NaCl, 0.005% Tween-20); 1:1 model, apparent KD.

The target in assay [7] is T1, C1r proenzyme (zymogen of complement protease C1r) (human). This is another data set of the same source.

Like-named read-outs stand apart in the source and are kept apart here.

On to “zC1r-12SP (fragment of human C1r with its two CCP repeats and serine protease domain, S654A, zymogen-like) (domain or fragment)”, for which, in assay [1], the Kd is 0.7 nM. Besides, in assay [2], the Ka-1 (two-state model, first step, association) is 370000 M⁻¹ s⁻¹; the Ka-2 (two-state model, second step, forward) came out at 0.0024 s⁻¹; the Kd is 1.1 nM; the Kd-1 (two-state model, first step, dissociation) worked out at 0.0038 s⁻¹. The Kd-2 (two-state model, second step, reverse) in assay [2] turned out to be 0.00028 s⁻¹. Further, in assay [3], the Ka-1 (two-state model, first step, association) is 280000 M⁻¹ s⁻¹; the Ka-2 (two-state model, second step, forward) stood at 0.0017 s⁻¹; the Kd is 9 nM; the Kd-1 (two-state model, first step, dissociation) came to 0.008 s⁻¹. Moreover, in assay [3], the Kd-2 (two-state model, second step, reverse) was 0.00077 s⁻¹. In addition, in assay [4], the Ka-1 (two-state model, first step, association) is 260000 M⁻¹ s⁻¹; the Ka-2 (two-state model, second step, forward) was 0.0018 s⁻¹; the Kd turned out to be 2.5 nM; the Kd-1 (two-state model, first step, dissociation) came out at 0.0034 s⁻¹. Also, the Kd-2 (two-state model, second step, reverse) in assay [4] amounted to 0.00041 s⁻¹.
Turning to eSALO-E58A (natural protein), in assay [5], the IC50 of inhibition of classical-pathway hemolysis (antibody-sensitized sheep erythrocytes, 0.5% NHS) came to 1200 nM.
Take “Native C1 complex (first component of complement) (from UniProt P02745 23-245; P02746 28-253; P02747 29-245)”: the Kd in assay [6] came out at 0.8 nM.
On to “C1r proenzyme (zymogen of complement protease C1r)”, for which the Kd was 11.1 nM in assay [1]; 8.5 nM in assay [6]; 5.6 nM in assay [2]; 41.9 nM in assay [3]; 10.3 nM in assay [4]. The values for the Ka-1 (two-state model, first step, association) in assay [2], in assay [3] and in assay [4] were 30000 M⁻¹ s⁻¹, 370000 M⁻¹ s⁻¹ and 50000 M⁻¹ s⁻¹, respectively. For the same molecule, the Ka-2 (two-state model, second step, forward) in assay [2] came to 0.003 s⁻¹; in assay [3], 0.0008 s⁻¹; in assay [4], 0.0023 s⁻¹. For the same molecule, the Kd-1 (two-state model, first step, dissociation) worked out at 0.0022 s⁻¹ in assay [2], 0.0183 s⁻¹ in assay [3] and 0.0027 s⁻¹ in assay [4]. Besides, the Kd-2 (two-state model, second step, reverse) in assay [2] stood at 0.00027 s⁻¹; in assay [3] it was 0.00069 s⁻¹; in assay [4], 0.00037 s⁻¹.
Regarding eSALO-Y51F (natural protein), in assay [5], the IC50 of inhibition of classical-pathway hemolysis (antibody-sensitized sheep erythrocytes, 0.5% NHS) was 14500 nM.

B1: eSALO-WT (SALO, salivary anticomplement from Lutzomyia longipalpis, expressed by HEK293(T) cells) (natural protein)
chain: SEDCENIFHDNAYLLKLDCEAGRVDPVEYDDISDEEIYEITVDVGVSSEDQEKVAKIIRECIAQVSTQDCTKFSEIYDCYMKKKICNYYPENM
modifications: sulfotyrosine at Y51 (X51; extent of sulfation not known); biotin (NHS-PEG4-biotin) where surface-captured in SPR
With B1, the IC50 of inhibition of classical-pathway hemolysis (antibody-sensitized sheep erythrocytes, 0.5% NHS) in assay [5] was 84.9 nM.

B2: rSALO-WT (SALO expressed in Escherichia coli and refolded) (natural protein)
chain: SEDCENIFHDNAYLLKLDCEAGRVDPVEYDDISDEEIYEITVDVGVSSEDQEKVAKIIRECIAQVSTQDCTKFSEIYDCYMKKKICNYYPENM
For the molecule B2, the IC50 of inhibition of classical-pathway hemolysis (antibody-sensitized sheep erythrocytes, 0.5% NHS) in assay [7] came out at 16000 nM.

Source of the values: PMC11928764.
